Assay [1] concerns the target BC2T-mSA2-myc displayed on E. coli as a fusion to OmpX. Kind of assay: flow cytometry, induced E. coli displaying BC2T-mSA2-myc; mean of triplicate. On the technique in general: Flow cytometry measures light scatter and fluorescence of single cells or particles in a stream.
Assay [2] addresses HA-mSA2-BC2T-myc fusion displayed on yeast at the C-terminus of Aga2 (yeast) (UniProt P32781). The assay can be described thus: flow cytometry, induced yeast displaying HA-mSA2-BC2T-myc; mean of triplicate.
Assay [3] concerns the target BC2T-mSA2-myc displayed on E. coli as a fusion to OmpX. The assay can be described thus: flow cytometry, induced E. coli displaying BC2T-mSA2-myc; co-treatment with Myc-ab-FITC; mean of triplicate.
For assay [4], the target named is HA-mSA2-BC2T-myc fusion displayed on yeast at the C-terminus of Aga2 (yeast) (UniProt P32781). The assay can be described thus: flow cytometry, induced yeast displaying HA-mSA2-BC2T-myc; co-treatment with HA-ab-FITC; mean of triplicate.
Assay [5] shares this target. The assay can be described thus: flow cytometry, induced yeast displaying HA-mSA2-BC2T-myc; co-treatment with Myc-ab-FITC; mean of triplicate.
Assay [6] concerns the target Green Fluorescent Protein (GFP), biotinylated and immobilized on streptavidin coated plates [GFP: P42212]. Kind of assay: competition ELISA on immobilized GFP; 1:1 mixture with GFPnb-BC2T as competitor, against GFPnb-BC2T alone; BC2nb-nLuc read-out. (In an ELISA, binding on a coated surface is turned into a signal by an enzyme label.)

With BC2 nanobody-Cy5 conjugate (VHH), the Cy5 (+) came out at 98.6% in assay [1]; 71.1% in assay [2]; 98.7% in assay [3]; 71.2% in assay [4]; 70.9% in assay [5].
Turning to “BC2 nanobody-GFP fusion protein (from UniProt P42212 1-238) (VHH)”, the values for the FITC or GFP (+) in assay [1] and in assay [2] were 98.1% and 59.6%, respectively.
Take “GFP-binding nanobody-His6 fusion protein (VHH)”: the decrease in luminescence in assay [6] worked out at 50%.

The record behind these values is patent US20180224459A1.
